# B1: TkTrpD (Thermococcus kodakarensis KOD1) (protein)
# chain: MSLLAKIVDGKNLSFEEAYELFNELKGSDGVLIGAYLAALQTKGYTGEELAGLARAMRDSAVKLDLGKVADTAGTGGDGSSTINVSTASALILSAFTRVAKHGNVSITSKSGSANVLEALGLNIRVSPERAREMVESTNFTFIFAPAYHPALRPIMPVRKALGIKTVFNVIGPLANPADPAYQVVGVNSPELLEPVAEALEFLGVERALVVHGSGMDEVSPHRETLVLEVGNGVERYTLSPEDFGIEPVKPLPCSSPEESAARIKAVLGGSGRREDRDFILVNASAALYASGVAEDFREGLEMAREALGQGMLEKLEEIACLSKS
# notes: homodimer
# How the values were obtained:
# [1] = tested on: Nc1ccccc1C(=O)O; test: purified protein; assay type: biochemical, Thermococcus kodakarensis; conditions: 1 mM PRPP, 100 μM ZnCl2, 100 mM Tris/HCl pH 8.5, 55 °C
# [2] = substrate: O=P(O)(O)OC[C@H]1O[C@H](OP(=O)(O)OP(=O)(O)O)[C@H](O)[C@@H]1O; test: purified protein; assay type: biochemical, Thermococcus kodakarensis; conditions: 4 μM anthranilate, 100 μM ZnCl2, 100 mM Tris/HCl pH 8.5, 55 °C
Molecule,Km [1],Km [2]
TkTrpD (Thermococcus kodakarensis KOD1),2.2 µM,–
B1,–,250 µM

# Source: publication PMC5537072, “Anthranilate phosphoribosyltransferase from the hyperthermophilic archaeon Thermococcus kodakarensis shows maximum activity with zinc and forms a unique dimeric structure” (FEBS Open Bio, 2017)
